Data: paper PMC2119780

Target: fibronectin receptors (alpha5beta1) on the adherent CHO cell line (Chinese hamster (endogenous in CHO))
Test: radioligand binding

Kd: 95 nM
Substance: human plasma fibronectin (ligand; labeled with 125Iodine (modified Chloramine-T procedure) in the binding assays)
